Source: CN111234012A (UNIV TSINGHUA, dated 2020)

What was measured:
[1] = target: T1, HBs抗原 (GENBANK ACCESSION NO: P30019.1) (乙肝病毒 (hepatitis B virus), UniProt P30019 1-226); assay: ELISA, HBs antigen coated at 50 ng per well, anti-human IgG-HRP, OD450
T1 construct: Coating antigen of the ELISA (50 ng per well); also called 乙肝病毒小膜蛋白HBs; 乙肝表面抗原

[2] = target: HBV病毒 (HepAD38细胞上清制备的HBV病毒液); assay: cell-based or functional assay

T1 sequence (P30019 whole entry, one chain of several): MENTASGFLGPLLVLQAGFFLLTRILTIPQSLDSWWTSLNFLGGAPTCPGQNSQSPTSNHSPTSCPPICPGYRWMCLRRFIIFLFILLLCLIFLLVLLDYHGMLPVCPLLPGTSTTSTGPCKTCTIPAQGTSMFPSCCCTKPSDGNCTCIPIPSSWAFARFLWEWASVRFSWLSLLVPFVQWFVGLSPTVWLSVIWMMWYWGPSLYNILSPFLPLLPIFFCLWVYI

B1: 单克隆抗体B432 (antibody, V domains shown)
VH: VQLVQSGGGVVQPGGSLRLSCAASGFIFGDYAMYWVRQAPGKGLEWVSFIGADGATIYYADSVTGRFTISRDNSKNSLFLQMNSLRTEDTAFYYCAKEMGVRDRYYYYAIDVWGQGTTVTVSS
VL: EIVLTQSPGTLSLSPGERASLSCRASQSVGGYLAWYQQTPGQAPRLLIYHSSTRATGIPARFSGSGSGTDFTLTISRLEPEDFAVYYCQQRTKWPLTFGGGTKVEIKR
notes: also called B432抗体
In the case of B1, the binding result [1] is reported as “binds” and the “HBV neutralisation on HepG2-NTCP cells, HBeAg in supernatant (IC50)” value [2] is reported as 0.025 µg/mL.
